Measured values taken from article PMC8602370, “HPF1 dynamically controls the PARP1/2 balance between initiating and elongating ADP-ribose modifications”.

Legend:
PARP1 WT = PARP1 WT (UniProt P09874 1-1014); experiment: fluorescence polarization; without HPF1; Kd only in Fig. 6f; SPR: 25 mM HEPES pH 7.4, 250 mM NaCl, 0.1 mM TCEP, 1 mM EDTA, 0.05% Tween20 (+/- 5 uM EB47); FP: 5 nM probe, 1.56-400 nM PARP1, buffer not stated; HXMS: 10 mM HEPES pD 7.0, 150 mM NaCl, RT; conditions: protein: recombinant; tags: N-terminal His6; label: internal FAM (GCTGAGC FAM-TTCTGG...); dumbbell, two hairpins, central nick
PARP1 R865A;HPF1 = PARP1 R865A;HPF1 (human?;human, UniProt P09874;Q9NWY4 1-1014;1-346, R865A|); experiment: fluorescence polarization; 20 uM HPF1; no further increase vs R865A alone (P=0.087, ns); SPR: 25 mM HEPES pH 7.4, 250 mM NaCl, 0.1 mM TCEP, 1 mM EDTA, 0.05% Tween20 (+/- 5 uM EB47); FP: 5 nM probe, 1.56-400 nM PARP1, buffer not stated; HXMS: 10 mM HEPES pD 7.0, 150 mM NaCl, RT; conditions: protein: recombinant;recombinant; tags: N-terminal His6;none (SMT sumo-like His-tag removed with ULP1); copies: 1;1; label: internal FAM (GCTGAGC FAM-TTCTGG...); dumbbell, two hairpins, central nick
PARP1 R865A = PARP1 R865A (UniProt P09874 1-1014, R865A); experiment: fluorescence polarization; without HPF1; P=0.000039; SPR: 25 mM HEPES pH 7.4, 250 mM NaCl, 0.1 mM TCEP, 1 mM EDTA, 0.05% Tween20 (+/- 5 uM EB47); FP: 5 nM probe, 1.56-400 nM PARP1, buffer not stated; HXMS: 10 mM HEPES pD 7.0, 150 mM NaCl, RT; conditions: protein: recombinant; tags: N-terminal His6; label: internal FAM (GCTGAGC FAM-TTCTGG...); dumbbell, two hairpins, central nick
PARP1 WT;HPF1 = PARP1 WT;HPF1 (human?;human, UniProt P09874;Q9NWY4 1-1014;1-346, |); experiment: fluorescence polarization; 20 uM HPF1; P=0.014; SPR: 25 mM HEPES pH 7.4, 250 mM NaCl, 0.1 mM TCEP, 1 mM EDTA, 0.05% Tween20 (+/- 5 uM EB47); FP: 5 nM probe, 1.56-400 nM PARP1, buffer not stated; HXMS: 10 mM HEPES pD 7.0, 150 mM NaCl, RT; conditions: protein: recombinant;recombinant; tags: N-terminal His6;none (SMT sumo-like His-tag removed with ULP1); copies: 1;1; label: internal FAM (GCTGAGC FAM-TTCTGG...); dumbbell, two hairpins, central nick
Sequence of PARP1 WT;HPF1 (P09874 whole entry, chain 1 of 2): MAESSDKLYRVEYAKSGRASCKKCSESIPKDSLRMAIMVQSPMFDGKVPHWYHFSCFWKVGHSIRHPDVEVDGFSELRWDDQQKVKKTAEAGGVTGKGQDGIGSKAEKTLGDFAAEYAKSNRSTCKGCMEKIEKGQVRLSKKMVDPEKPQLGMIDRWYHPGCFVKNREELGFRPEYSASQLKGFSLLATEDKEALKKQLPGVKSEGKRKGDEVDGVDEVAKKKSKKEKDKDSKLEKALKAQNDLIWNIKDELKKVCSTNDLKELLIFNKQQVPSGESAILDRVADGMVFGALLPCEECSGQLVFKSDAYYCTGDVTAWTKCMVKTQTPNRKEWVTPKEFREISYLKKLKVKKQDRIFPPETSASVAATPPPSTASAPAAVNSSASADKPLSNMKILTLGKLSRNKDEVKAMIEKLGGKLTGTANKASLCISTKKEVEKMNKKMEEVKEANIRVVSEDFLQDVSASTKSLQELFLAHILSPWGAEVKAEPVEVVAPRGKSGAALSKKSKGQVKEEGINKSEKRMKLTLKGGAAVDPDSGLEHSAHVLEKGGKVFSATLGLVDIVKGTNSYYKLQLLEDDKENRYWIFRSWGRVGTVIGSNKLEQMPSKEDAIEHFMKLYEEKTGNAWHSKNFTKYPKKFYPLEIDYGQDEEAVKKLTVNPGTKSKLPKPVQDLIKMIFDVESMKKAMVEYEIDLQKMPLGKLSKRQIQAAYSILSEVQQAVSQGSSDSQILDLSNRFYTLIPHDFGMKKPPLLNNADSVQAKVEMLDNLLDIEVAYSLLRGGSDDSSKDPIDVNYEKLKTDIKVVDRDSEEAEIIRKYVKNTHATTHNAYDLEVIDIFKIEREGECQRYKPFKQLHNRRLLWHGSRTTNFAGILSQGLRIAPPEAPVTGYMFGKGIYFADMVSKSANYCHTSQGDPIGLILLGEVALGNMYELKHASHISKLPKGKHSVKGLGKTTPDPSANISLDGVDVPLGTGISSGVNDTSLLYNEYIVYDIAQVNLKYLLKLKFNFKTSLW
Sequence of PARP1 WT;HPF1 (Q9NWY4 whole entry, chain 2 of 2): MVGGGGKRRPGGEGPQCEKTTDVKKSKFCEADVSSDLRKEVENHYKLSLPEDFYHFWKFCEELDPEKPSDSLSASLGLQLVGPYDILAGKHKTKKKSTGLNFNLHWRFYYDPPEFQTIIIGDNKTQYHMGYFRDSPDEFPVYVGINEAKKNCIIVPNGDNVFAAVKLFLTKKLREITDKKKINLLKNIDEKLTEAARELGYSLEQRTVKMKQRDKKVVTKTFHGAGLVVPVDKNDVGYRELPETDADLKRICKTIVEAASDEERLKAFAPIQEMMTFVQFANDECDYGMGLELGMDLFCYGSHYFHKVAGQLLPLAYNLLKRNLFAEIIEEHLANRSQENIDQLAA

Sequence of PARP1 WT (P09874 whole entry): as the sequence (P09874 whole entry, chain 1 of 2) above
Sequence of PARP1 R865A;HPF1 (P09874 whole entry R865A, chain 1 of 2): as the sequence (P09874 whole entry, chain 1 of 2) above, with R865A counted along it
Sequence of PARP1 R865A;HPF1 (Q9NWY4 whole entry, chain 2 of 2): as the sequence (Q9NWY4 whole entry, chain 2 of 2) above
Sequence of PARP1 R865A (P09874 whole entry R865A): as the sequence (P09874 whole entry, chain 1 of 2) above, with R865A counted along it

GCTGAGCTTCTGGTGAAGCTCAGCTCGCGGCAGCTGGTGCTGCCGCGA (structured_DNA) [FAM dumbbell with central nick (FP)]
binding result (PARP1 WT): binds | binding result (PARP1 R865A;HPF1): binds | binding signal (PARP1 R865A): 4 fold higher affinity than PARP1 WT | binding signal (PARP1 WT;HPF1): ~2 fold higher affinity than PARP1 WT alone
